Assay results reported in US6730503B1 (Roche Vitamins Inc., priority 1996, dated 2004).

B1: Enzyme A: recombinant AADH of G. oxydans DSM No. 4025, amino acid sequence SEQ ID NO 5, plasmid p24D4/pSSA102R (protein)
chain: MKPTSLLWASAGALALLAAPAFAQVTPVTDELLANPPAGEWISYGQNQENYRHSPLTQITTENVGQLQLVWARGMQPGKVQVTPLIHDGVMYLANPGDVIQAIDAKTGDLIWEHRRQLPNIATLNSFGEPTRGMALYGTNVYFVSWDNHLVALDTATGQVTFDVDRGQGEDMVSNSSGPIVANGVIVAGSTCQYSPFGCFVSGHDSATGEELWRNYFIPRAGEEGDETWGNDYEARWMTGAWGQITYDPVTNLVHYGSTAVGPASETQRGTPGGTLYGTNTRFAVRPDTGEIVWRHQTLPRDNWDQECTFEMMVTNVDVQPSTEMEGLQSINPNAATGERRVLTGVPCKTGTMWQFDAETGEFLWARDTNYQNMIESIDENGIVTVNEDAILKELDVEYDVCPTFLGGRDWPSAALNPDSGIYFIPLNNVCYDMMAVDQEFTSMDVYNTSNVTKLPPGKDMIGRIDAIDISTGRTLWSVERAAANYSPVLSTGGGVLFNGGTDRYFRALSQETGETLWQTRLATVASGQAISYEVDGMQYVAIAGGGVSYGSGLNSALAGERVDSTAIGNAVYVFALPQ
modifications: Gluconobacter oxydans; SIGNAL (1)..(23)
B2: Enzyme A′: recombinant AADH of G. oxydans DSM No. 4025, amino acid sequence SEQ ID NO 6, plasmid p1E2 (protein)
chain: MKTSSLLVASVAALASYSSFALAQVTPVTDELLANPPAGEWISYGQNQENYRHSPLTQITTENVGQLQLVWARGMQPGKVQVTPLIHDGVMYLANPGDVIQAIDAKTGDLIWEHRRQLPNIATLNSFGEPTRGMALYGTNVYFVSWDNHLVALDTATGQVTFDVDRGQGEDMVSNSSGPIVANGVIVAGSTCQYSPFGCFVSGHDSATGEELWRNYFIPRAGEEGDETWGNDYEARWMTGVWGQITYDPVGGLVHYGSSAVGPASETQRGTTGGTMYGTNTRFAVRPETGEIVWRHQTLPRDNWDQECTFEMMVANVDVQPAADMDGVRSINPNAATGERRVLTGVPCKTGTMWQFDAETGEFLWARDTSYENIIESIDENGIVTVDESKVLTELDTPYDVCPLLLGGRDWPSAALNPDTGIYFIPLNNTCMDIEAVDQEFSSLDVYNQSLTAKMAPGKELVGRIDAIDISTGRTLWTAEREASNYAPVLSTAGGVLFNGGTDRYFRALSQETGETLWQTRLATVASGQAVSYEIDGVQYIAIGGGGTTYGSFHNRPLAEPVDSTAIGNAMYVFALPQQ
modifications: Gluconobacter oxydans; SIGNAL (1)..(23)
B3: Enzyme A″: recombinant AADH of G. oxydans DSM No. 4025, amino acid sequence SEQ ID NO 7, plasmid p26C3 (protein)
chain: MKLTTLLQSSAALLVLGTIPALAQTAITDEMLANPPAGEWINYGQNQENYRHSPLTQITADNVGQLQLVWARGMEAGKIQVTPLVHDGVMYLANPGDVIQAIDAATGDLIWEHRRQLPNIATLNSFGEPTRGMALYGTNVYFVSWDNHLVALDTSTGQVVFDVDRGQGTDMVSNSSGPIVANGVIVAGSTCQYSPFGCFVSGHDSATGEELWRNTFIPRAGEEGDETWGNDYEARWMTGVWGQITYDPVGGLVHYGTSAVGPAAEIQRGTVGGSMYGTNTRFAVRPETGEIVWRHQTLPRDNWDQECTFEMMVVNVDVQPSAEMEGLHAINPDAATGERRVVTGVPCKNGTMWQFDAETGEFLWARDTSYQNLIESVDPDGLVHVNEDLVVTELEVAYEICPTFLGGRDWPSAALNPDTGIYFIPLNNACSGMTAVDQEFSSLDVYNVSLDYKLSPGSENMGRIDAIDISTGRTLWSAERYASNYAPVLSTGGGVLFNGGTDRYFRALSQETGETLWQTRLATVASGQAISYEIDGVQYVAIGRGGTSYGSNHNRALTERIDSTAIGSAIYVFALPQQ
modifications: Gluconobacter oxydans; SIGNAL (1)..(23)
B4: Enzyme B: recombinant AADH of G. oxydans DSM No. 4025, amino acid sequence SEQ ID NO 8, plasmid pSS31/pSSB103R (protein)
chain: MNPTTLLRTSAAVLLLTAPAAFAQVTPITDELLANPPAGEWINYGRNQENYRHSPLTQITADNVGQLQLVWARGMEAGAVQVTPMIHDGVMYLANPGDVIQALDAQTGDLIWEHRRQLPAVATLNAQGDRKRGVALYGTSLYFSSWDNHLIALDMETGQVVFDVERGSGEDGLTSNTTGPIVANGVIVAGSTCQYSPYGCFISGHDSATGEELWRNHFIPQPGEEGDETWGNDFEARWMTGVWGQITYDPVTNLVFYGSTGVGPASETQRGTPGGTLYGTNTRFAVRPDTGEIVWRHQTLPRDNWDQECTFEMMVANVDVQPSAEMEGLRAINPNAATGERRVLTGAPCKTGTMWSFDAASGEFLWARDTNYTNMIASIDETGLVTVNEDAVLKELDVEYDVCPTFLGGRDWSSAALNPDTGIYFLPLNNACYDIMAVDQEFSALDVYNTSATAKLAPGFENMGRIDAIDISTGRTLWSAERPAANYSPVLSTAGGVVFNGGTDRYFRALSQETGETLWQARLATVATGQAISYELDGVQYIAIGAGGLTYGTQLNAPLAEAIDSTSVGNAIYVFALPQ
modifications: Gluconobacter oxydans; SIGNAL (1)..(23)

Assay: Product assay with Enzyme sA2 and Enzyme A
Format: biochemical
Settings: not given

Products from D-sorbitol in product assay	Products from L-sorbose in product assay [KGA]	Molecule
D-glucose only	2	B1

Assay: pH stability, 3 hours at 25° C., residual activity by PMS-DCIP assay
Format: physicochemical
Settings: incubated at pH 4.0, 3 hours, relative to no incubation at pH 8.0
Description: Enzymes A, A′, A″ and B were incubated in buffers of various pH-values for 3 hours at 25° C. and the residual activities were assayed and expressed as relative values against that obtained by no incubation at pH 8.
Table 3 indicates the results of pH-stabilities of the enzymes. The enzyme (about 0.01 mg/ml) was incubated with 50 mM buffer containing 5% sucrose, 0.2 M NaCl, and 5 mM CaCl2 at 25° C. for 3 hours and assayed by PMS-DCIP spectrophotometric method. The buffers were Na-acetate, pH4 and 5, Tris-malate-NaOH, pH 6, 7 and 8, glycine-NaOH, pH 9 and 10. The values in the table are expressed as relative activity against that obtained by no incubation at pH 8.0.

Molecule	Relative activity (pH stability) [%]
B2	0.0
B3	6.2
B1	5.4
B4	25.2

Same assay, conditions: incubated at pH 5.0, 3 hours, relative to no incubation at pH 8.0

Molecule	Relative activity (pH stability) [%]
B2	10.0
B3	77.9
B1	32.0
B4	56.1

Same assay, conditions: incubated at pH 6.0, 3 hours, relative to no incubation at pH 8.0

Molecule	Relative activity (pH stability) [%]
B2	82.7
B3	105.8
B1	74.7
B4	100.9

Same assay, conditions: incubated at pH 7.0, 3 hours, relative to no incubation at pH 8.0

Molecule	Relative activity (pH stability) [%]
B2	96.9
B3	100.9
B1	76.9
B4	101.9

Same assay, conditions: incubated at pH 8.0, 3 hours, relative to no incubation at pH 8.0

Molecule	Relative activity (pH stability) [%]
B2	100.0
B3	99.0
B1	80.1
B4	114.0

Same assay, conditions: incubated at pH 9.0, 3 hours, relative to no incubation at pH 8.0

Molecule	Relative activity (pH stability) [%]
B2	97.3
B3	100.9
B1	60.1
B4	101.9

Same assay, conditions: incubated at pH 10.0, 3 hours, relative to no incubation at pH 8.0

Molecule	Relative activity (pH stability) [%]
B2	85.4
B3	104.0
B1	53.2
B4	85.5

Same assay, conditions: incubated at pH 11.0, 3 hours, relative to no incubation at pH 8.0

Molecule	Relative activity (pH stability) [%]
B2	61.3
B3	79.2
B1	31.0
B4	70.1

Assay: 2KGA production by purified recombinant AADH in a reaction mixture
Format: biochemical
Settings: 1.7 mg/ml enzyme, 4% L-sorbose, 30° C., 20 hours; TLC assay
Source text: As a result, about 2 g/l 2KGA (TLC assay) was produced. […]

Molecule	2KGA produced
B1	about 2 g/l
